Measurements: publication doi:10.1101/706143

Assays:
[1] = biological target: Cas7 (V. cholerae Type I-F variant CRISPR-Cas system) (V. cholerae); assay: cryo-EM structure
[2] = biological target: TniQ (transposition protein of the Vibrio cholerae Tn6677 transposon) (V. cholerae); assay: cryo-EM structure

Substance	stoichiometry N [1]	stoichiometry N [2]
Cas7 (V. cholerae Type I-F variant CRISPR-Cas system) (natural protein)	6	–
TniQ (transposition protein of the Vibrio cholerae Tn6677 transposon) (natural protein)	–	2
